Results published in doi:10.1101/805184 (bioRxiv, 2019).

T1: Swi3 (S. cerevisiae, UniProt P32591 1-825)
T1 sequence: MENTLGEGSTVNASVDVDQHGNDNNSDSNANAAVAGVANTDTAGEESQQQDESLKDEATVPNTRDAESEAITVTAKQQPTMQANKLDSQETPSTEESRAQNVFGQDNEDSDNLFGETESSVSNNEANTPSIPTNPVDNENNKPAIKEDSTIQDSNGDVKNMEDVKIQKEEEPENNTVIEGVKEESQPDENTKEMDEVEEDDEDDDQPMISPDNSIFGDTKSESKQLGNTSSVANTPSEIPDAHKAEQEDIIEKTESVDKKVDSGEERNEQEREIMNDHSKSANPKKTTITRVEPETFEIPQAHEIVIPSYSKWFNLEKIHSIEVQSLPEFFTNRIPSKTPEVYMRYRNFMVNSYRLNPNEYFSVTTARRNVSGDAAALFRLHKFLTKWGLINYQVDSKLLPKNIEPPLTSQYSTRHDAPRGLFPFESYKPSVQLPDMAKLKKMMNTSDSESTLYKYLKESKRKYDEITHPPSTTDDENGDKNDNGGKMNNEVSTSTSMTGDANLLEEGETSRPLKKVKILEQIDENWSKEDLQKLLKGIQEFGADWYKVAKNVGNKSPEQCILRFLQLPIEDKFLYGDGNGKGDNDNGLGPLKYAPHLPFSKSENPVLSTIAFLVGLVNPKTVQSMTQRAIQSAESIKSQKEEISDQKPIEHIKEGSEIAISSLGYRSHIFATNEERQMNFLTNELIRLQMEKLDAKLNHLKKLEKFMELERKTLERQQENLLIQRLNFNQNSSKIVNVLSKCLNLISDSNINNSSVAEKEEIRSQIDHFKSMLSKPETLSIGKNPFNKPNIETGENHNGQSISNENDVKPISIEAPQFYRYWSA

B1: Arp7 (natural protein)
chain: MTLNRKCVVIHNGSHRTVAGFSNVELPQCIIPSSYIKRTDEGGEAEFIFGTYNMIDAAAEKRNGDEVYTLVDSQGLPYNWDALEMQWRYLYDTQLKVSPEELPLVITMPATNGKPDMAILERYYELAFDKLNVPVFQIVIEPLAIALSMGKSSAFVIDIGASGCNVTPIIDGIVVKNAVVRSKFGGDFLDFQVHERLAPLIKEENDMENMADEQKRSTDVWYEASTWIQQFKSTMLQVSEKDLFELERYYKEQADIYAKQQEQLKQMDQQLQYTALTGSPNNPLVQKKNFLFKPLNKTLTLDLKECYQFAEYLFKPQLISDKFSPEDGLGPLMAKSVKKAGASINSMKANTSTNPNGLGTSHINTNVGDNNSTASSSNISPEQVYSLLLTNVIITGSTSLIEGMEQRIIKELSIRFPQYKLTTFANQVMMDRKIQGWLGALTMANLPSWSLGKWYSKEDYETLKRDRKQSQATNATN
B2: Snf12 (natural protein)
chain: MSKVMKPSNGKGSRKSSKAATPDTKNFFHAKKKDPVNQDKANNASQITPTVPHSHPSDMVIPDHLAELIPELYSFQQLVDSEKRLDHFIHLRNLHMKRMVAQWERSKLSQEFLYPHLNFPNVKFLRIFISNVSENQPWQMDTNNEADLMALENATWTMRIEGRLLDNVQANDPAREKFSSFIESIVVDFKNKENDNVPSTKFNAAPEENATEGPSDKKLNLNLPLQFSLPNGDNSTTTNTDQNNATMGEETAKKDMSSTTPKLESVKWQYDPNNPVDFDGLDIKRVGSENVECTISILRKSSPEEPFMSYSPQLTAIIGLKSGTSHDAIFSIYKYIHLNELLTNDESAFENLMGNRNNHNSNTSTSKMLDAASSQVSIVKLDTQLITLLPSSLKESSPDTMKLTDLLSLINSTHLLPLQPIEIDYTVRVDKASTYGELVLDIEVPDVNALKFNNTQRESQIGAAELNENARELEQIKPKIALQDKEITSVLSNLHESNKRYRFFKKISEDPVKALNECIASTSNALKVLSGDEGYNEDMVRRANFYKENEAMLRENIEVILSNGRM
B3: Rtt102 (natural protein)
chain: MDPQTLITKANKVSYYGNPTSKESWRYDWYQPSKVSSNVQQPQQQLGDMENNLEKYPFRYKTWLRNQEDEKNLQRESCEDILDLKEFDRRILKKSLMTSHTKGDTSKATGAPSANQGDEALSVDDIRGAVGNSEAIPGLSAGVNNDNTKESKDVKMN
B4: Arp9 (natural protein)
chain: MAPFRQDSILIIYPRSQTTLVQFGLNEETFTVPELEIPTQIYRTTRQDGSYTYHSTNKDNKAELIKPIQNGEIIDISAFTQFLRLIFVSILSDRANKNQDAFEAELSNIPLLLITHHSWSQSDLEIITQYVFESLEINNLIQLPASLAATYSMISLQNCCIIDVGTHHTDIIPIVDYAQLDHLVSSIPMGGQSINDSLKKLLPQWDDDQIESLKKSPIFEVLSDDAKKLSSFDFGNENEDEDEGTLNVAEIITSGRDTREVLEERERGQKVKNVKNSDLEFNTFWDEKGNEIKVGKQRFQGCNNLIKNISNRVGLTLDNIDDINKAKAVWENIIIVGGTTSISGFKEALLGQLLKDHLIIEPEEEKSKREEEAKSVLPAATKKKSKFMTNSTAFVPTIEYVQCPTVIKLAKYPDYFPEWKKSGYSEIIFLGAQIVSKQIFTHPKDTFYITREKYNMKGPAALWDVQF
B5: Swi1 (natural protein)
chain: MDFFNLNNNNNNNNTTTTTTTTNNNNTNNNNTNNNNNPANNTNNNNSTGHSSNTNNNTNNNNTNTGASGVDDFQNFFDPKPFDQNLDSNNNNSNSNNNDNNNSNTVASSTNFTSPTAVVNNAAPANVTGGKAANFIQNQSPQFNSPYDSNNSNTNLNSLSPQAILAKNSIIDSSNLPLQAQQQLYGGNNNNNSTGIANDNVITPHFITNVQSISQNSSSSTPNTNSNSTPNANQQFLPFNNSASNNGNLTSNQLISNYAASNSMDRSSSASNEFVPNTSDNNNNSNNHNMRNNSNNKTSNNNNVTAVPAATPANTNNSTSNANTVFSERAAMFAALQQKQQQRFQALQQQQQQQQNQQQQNQQPQQQQQQQQNPKFLQSQRQQQQRSILQSLNPALQEKISTELNNKQYELFMKSLIENCKKRNMPLQSIPEIGNRKINLFYLYMLVQKFGGADQVTRTQQWSMVAQRLQISDYQQLESIYFRILLPYERHMISQEGIKETQAKRIFLQQFLQELLKKVQQQQQAAALANANNNINSASSAPTPAAPGASVPATAAPGTEAGIVPVSANTPKSLNSNININVNNNNIGQQQVKKPRKQRVKKKTKKELELERKEREDFQKRQQKLLEDQQRQQKLLLETKLRQQYEIELKKLPKVYKRSIVRNYKPLINRLKHYNGYDINYISKIGEKIDSNKPIFLFAPELGAINLHALSMSLQSKNLGEINTALNTLLVTSADSNLKISLVKYPELLDSLAILGMNLLSNLSQNVVPYHRNTSDYYYEDAGSNQYYVTQHDKMVDKIFEKVNNNATLTPNDSNDEKVTILVDSLTGNQLPTPTPTEMEPDLDTECFISMQSTSPAVKQWDLLPEPIRFLPNQFPLKIHRTPYLTSLKKIKDEIDDPFTKINTRGAEDPKVLINDQLSTISMILRNISFSDNNSRIMSRNFYLKRFISDLLWLVLIHPENFTCNRKILNFKKDLVIVLSNISHLLEIASSIDCLLILILVISFGQPKLNPMASSSSFGSESLTFNEFQLQWGKYQTFGVDILAKLFSLEKPNLNYFKSILLNKNTGNNLYDRNSNNNHKDKKLLRRLLNLYNDNNKNNNNRHNLLNDVVSFLFSAIPLQQVLSQSADPSLLIDQFSPVISQSLTSILVIVQKILPLSNEVFEISENNSDSNSNNNGNKDSSFNFNKNLPFVWLSSEENIGSGLLKLSEIILNINNSTSKNTLLQQQNYSKVLLPSINISCVQLIKCLVEKSICFENCLNNDPEILKKIASIPNLFPTDLEIFQLFTNPSVDIQIINQYQLLYNLKNDILTNLE
B6: Snf5 (natural protein)
chain: MNNQPQGTNSVPNSIGNIFSNIGTPSFNMAQIPQQLYQSLTPQQLQMIQQRHQQLLRSRLQQQQQQQQQTSPPPQTHQSPPPPPQQSQPIANQSATSTPPPPPAPHNLHPQIGQVPLAPAPINLPPQIAQLPLATQQQVLNKLRQQAIAKNNPQVVNAITVAQQQVQRQIEQQKGQQTAQTQLEQQRQLLVQQQQQQQLRNQIQRQQQQQFRHHVQIQQQQQKQQQQQQQHQQQQQQQQQQQQQQQQQQQQQQQQQQQQQQQQQQQQQGQIPQSQQVPQVRSMSGQPPTNVQPTIGQLPQLPKLNLPKYQTIQYDPPETKLPYPTYWSDKKADTDTLLYEQIIQRDKINKYSLIRETNGYDPFSIYGFSNKEYISRLWHTLKYYQDLKNTRMKSITSTSQKIPSASIWGNGYSGYGNGITNTTTRVIPQVEVGNRKHYLEDKLKVYKQAMNETSEQLVPIRLEFDQDRDRFFLRDTLLWNKNDKLIKIEDFVDDMLRDYRFEDATREQHIDTICQSIQEQIQEFQGNPYIELNQDRLGGDDLRIRIKLDIVVGQNQLIDQFEWDISNSDNCPEEFAESMCQELELPGEFVTAIAHSIREQVHMYHKSLALLGYNFDGSAIEDDDIRSRMLPTITLDDVYRPAAESKIFTPNLLQISAAELERLDKDKDRDTRRKRRQGRSNRRGMLALSGTSASNTSMNGVHNTVAAGNASSLPPGEILLPDIADIPRTFRTPVPSTLMPGGVDVGPSVESYELRNTTTYKSRPDRPKPVSPPCYIIDHIPGHSLLLSIKLPGKVNTKEEFAAAPNDTSSGTNAMLPSPESLKTKLNSNIRAGVTIPSIPNPIANHTVTNSPNPTLQPVIPGGAASKSVPTPSLPIAPPVAPHDSEATLLTNSNNGSSNNNTQNT

How the values were obtained:
Assay in all cases: cryo-EM structure
[1] = molecular target: Snf2 (S. cerevisiae, UniProt P22082 1-1703)
[2] = molecular target: B5
[3] = molecular target: T1, Swi3

Chain of Snf2 (P22082 whole entry): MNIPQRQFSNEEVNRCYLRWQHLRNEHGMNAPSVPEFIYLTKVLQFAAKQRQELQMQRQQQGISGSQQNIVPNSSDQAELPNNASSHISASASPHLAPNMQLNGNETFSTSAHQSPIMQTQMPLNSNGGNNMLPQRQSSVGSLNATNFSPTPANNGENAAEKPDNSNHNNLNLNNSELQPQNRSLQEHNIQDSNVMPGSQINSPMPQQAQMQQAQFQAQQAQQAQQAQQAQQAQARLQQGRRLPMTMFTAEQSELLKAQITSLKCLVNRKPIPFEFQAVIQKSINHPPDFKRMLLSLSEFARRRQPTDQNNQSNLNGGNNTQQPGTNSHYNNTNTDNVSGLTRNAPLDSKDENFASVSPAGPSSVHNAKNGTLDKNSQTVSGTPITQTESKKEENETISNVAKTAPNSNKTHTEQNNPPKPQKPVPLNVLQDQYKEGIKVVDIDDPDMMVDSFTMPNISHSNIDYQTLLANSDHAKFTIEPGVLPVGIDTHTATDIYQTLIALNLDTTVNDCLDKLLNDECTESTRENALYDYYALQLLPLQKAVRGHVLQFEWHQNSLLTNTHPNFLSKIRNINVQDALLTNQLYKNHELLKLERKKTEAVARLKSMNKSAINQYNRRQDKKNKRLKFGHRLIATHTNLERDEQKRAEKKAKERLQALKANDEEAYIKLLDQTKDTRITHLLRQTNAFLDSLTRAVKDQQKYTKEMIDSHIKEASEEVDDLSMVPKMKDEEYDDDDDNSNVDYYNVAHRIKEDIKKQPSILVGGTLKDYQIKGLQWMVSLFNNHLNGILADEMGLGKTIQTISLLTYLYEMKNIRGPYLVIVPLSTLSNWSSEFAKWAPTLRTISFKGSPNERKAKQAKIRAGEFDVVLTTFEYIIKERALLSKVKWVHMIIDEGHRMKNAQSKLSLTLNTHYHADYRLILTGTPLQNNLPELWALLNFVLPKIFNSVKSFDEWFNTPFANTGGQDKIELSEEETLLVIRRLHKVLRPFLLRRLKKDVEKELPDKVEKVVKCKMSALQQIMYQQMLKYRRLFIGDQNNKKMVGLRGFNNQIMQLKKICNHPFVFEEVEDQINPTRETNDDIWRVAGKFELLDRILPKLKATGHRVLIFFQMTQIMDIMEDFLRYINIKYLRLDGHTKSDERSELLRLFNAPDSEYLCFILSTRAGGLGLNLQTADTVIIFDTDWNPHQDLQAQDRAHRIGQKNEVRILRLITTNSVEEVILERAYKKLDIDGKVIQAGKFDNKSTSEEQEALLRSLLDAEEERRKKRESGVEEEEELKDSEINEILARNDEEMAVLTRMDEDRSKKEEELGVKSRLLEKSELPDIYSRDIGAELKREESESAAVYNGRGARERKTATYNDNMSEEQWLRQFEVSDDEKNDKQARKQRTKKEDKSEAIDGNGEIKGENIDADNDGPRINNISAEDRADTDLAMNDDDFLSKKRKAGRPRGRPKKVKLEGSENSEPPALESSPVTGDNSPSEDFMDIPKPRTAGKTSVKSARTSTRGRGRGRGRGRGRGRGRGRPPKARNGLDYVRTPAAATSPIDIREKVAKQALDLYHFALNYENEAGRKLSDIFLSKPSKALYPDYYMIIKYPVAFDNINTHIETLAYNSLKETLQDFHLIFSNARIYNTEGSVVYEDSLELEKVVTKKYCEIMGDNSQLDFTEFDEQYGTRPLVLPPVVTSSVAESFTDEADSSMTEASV

| binding result [1] | binding result [2] | binding result [3] | Binder |
| --- | --- | --- | --- |
| binds | – | – | B1 |
| – | binds | binds | B2 |
| binds | – | – | B3 |
| binds | – | – | B4 |
| binds | – | – | B5 |
| – | binds | – | B6 |
